Measurements: the Human Domainome abundance scans (Beltran et al. 2025)

B1: Glucocorticoid receptor, residues 419 to 494; numbered along this chain, P04150 (parent)
chain: KLCLVCSDEASGCHYGVLTCGSCKVFFKRAVEGQHNYLCAGRNDCIIDKIRRKNCPACRYRKCLQAGMNLEARKTK
B2: Ventral anterior homeobox 1, residues 102 to 157; numbered along this chain, Q5SQQ9 (parent)
chain: RTRTSFTAEQLYRLEMEFQRCQYVVGRERTELARQLNLSETQVKVWFQNRRTKQKK

Variants of: B1
Test: abundance fitness (aPCA) (normalised: wild type 0, dead -1); higher = more abundant; growth selection in yeast, the domain comes from the species named
Settings: Homo sapiens

Abundance fitness: each site, then its substitutions
E71: S -0.016, A -0.135, C -0.052, W -0.106, Q -0.051, G -0.009, V -0.01, K -0.077, R -0.095, T -0.076, Y -0.131, F -0.072, L -0.104, I -0.016, P -0.038, D 0.008, N -0.017, H -0.09
L70: Q -0.02, T -0.03, G -0.068, I -0.018, H 0.01, A -0.058, S 0.052, W -0.033, N -0.011, E -0.021, V 0.021, C -0.029, M 0.052, F -0.08, D -0.033, K -0.029, R 0.023, Y 0.023
T75: G 0.044, N 0.014, W 0.047, D 0.023, A 0.029, R -0.01, E 0.032, L 0.054, V -0.064, P -0.005, I -0.044, H -0.038, M -0.004, K 0.007, Q -0.099, S 0.008, F 0.064, C -0.075
M68: T -0.595, V -0.472, Y -0.215, W -0.846
K74: Y 0.043, N -0.01, A -0.033, F 0.047, G -0.006, T -0.034, P -0.049, S -0.047, R 0.054, C -0.032, W -0.017, V -0.008, E 0.091, H 0.039, M 0.009, D 0.19, L 0.077, Q 0.063, I 0.027
K76: C 0.132, E 0.105, Y -0.206, I -0.277, N 0.045, P 0.004, V -0.001, W -0.137, M -0.023, A 0.028, D 0.02, G 0.018, S 0.099, H -0.096, F 0.006, L -0.001
R73: Y -0.062, E -0.015, I -0.066, Q -0.061, C -0.019, D -0.125, G -0.021, N -0.133, S 0.003, H -0.109, F -0.059, L -0.04, P -0.007, M 0.012, T 0.024, K 0.004
A72: D -0.017, H -0.044, Y 0.011, S -0.067, F -0.285, Q 0.008, M 0.005, V -0.043, P -0.077, I 0.002, W -0.023, K 0.049, L -0.015, E 0.047, N -0.037, R -0.054, G -0.023
N69: T 0.011, A 0.006, S 0.039, L -0.11, Q -0.071, Y -0.105, E -0.02, K 0.001, G -0.047, H 0.028, I -0.089, F -0.023, P -0.252, D -0.033, R 0.01, W -0.061, M -0.022, V -0.049

Variants of: B2
Test: as above
Settings: Homo sapiens

Abundance fitness of substitutions, site by site:
F6: Q -0.347, G -0.427, K -0.42, I -0.089, R -0.71, L -0.029, W -0.052, S -0.729, N -0.43, H -0.283, A -0.616, P -0.337, E -0.559, T -0.556, M 0.049, V -0.105, C -0.536, D -0.445
S5: C -0.225, E 0.326, I -0.177, R -0.597, M 0.08
